The values below come from paper doi:10.1101/2020.12.20.423708 (bioRxiv, 2020).

One may read the Kd as a measure of binding affinity in units of concentration. Lower therefore signals a tighter complex.

This assay deals with SARS-CoV-2 spike ectodomain, HexaPro variant (SARS-CoV-2, Wuhan-Hu-1 (MN908947), stabilised). The experiment in a line: BLI. A general note: Biolayer interferometry detects binding as a change in optical thickness at a sensor tip.

B1: CM29 recombinant plasma mAb (subject P3, Lin.1) (antibody, V domains shown)
VH: QVQLVESGGGVVQPGRSLRLSCAASGFTLSKYGMHWVRQAPDKGLEWVALMSYDGSIKYYGDSVKGRFTVSRDSSKNTLYLQMNNLRDDDTAVYFCARGAMAGNSSFDHWGQGTLVTVSS
VL: not shown
The molecule B1 displayed a Kd of 6.6 nM.

B2: CM30 recombinant plasma mAb (subject P3, Lin.2) (antibody, V domains shown)
VH: QVQLVESGGGLVKPGGSLRLSCAASGFTFSDYYMSWIRQAPGKGLEWVSSIDGSTSYTKYADSVKGRFTISRDNAKNSLYLQMNSLRAEDTAVYYCARVGPAVAGSPFDSWGQGTLVTVSS
VL: EIVLTQSPATLSLSPGERATLSCRASQSVSTYLAWYQQKPGQAPRLLIFDASNRATGIPARFSGSGSGTDFTLTISSLEPEDFAVYYCQQRSNWLFSFGPGTKVDIK
On to B2, for which the Kd was 0.8 nM.

B3: CM32 recombinant plasma mAb (subject P3, Lin.4) (antibody, V domains shown)
VH: QVQLVQSGPEVKKPGASVKVSCQTSGYSFSDHYLHWVRQTPGQGFEWMGWIKPKSGATNSADNFQDRVTMTADASVNTAYMELSSLRPDDTAVYYCARGHRIPSAISDKYDFWGQGTLVTVSS
VL: QSVLTQPASVSASPGQSITISCTGTSSDVGGYDYVSWYQHHPDNAPKLLIFEVSNRPSGVSNRFSGSKSGNAASLTISGLLAEDEADYFCTSYSSGRTPYVFGTGTKVTVL
For B3, the Kd stood at 6 nM.

B4: CM31 recombinant plasma mAb (subject P3, Lin.3) (antibody, V domains shown)
VH: QVTLKESGPTLVKPTQTLTLTCTVSGFSLSTNGVGVAWVRQPPGKALEWLGLIYWDDAQRYGPSLKSRLTITKDTSKNQVVLTLTNMDPVDTGTYYCSHVWVNSTHRQIDYWGQGTLVTVSS
VL: QPVLTQPPSSSASPGESARLTCTLPSDFNVGSYNIYWYQKRPGSPPRYLLYYYSDSDKGQGSGVPSRFSGSKDASANTGILLISGLQSEDEADYYCMIWPINGVVFGGGTKLTVL
On to B4, for which the Kd is 37.7 nM.
